{
  "source": "patent US20160272683A1",
  "about": "(Novo Nordisk, published 2016)",
  "binders": {"B1": {"name": "[N-terminal(C20 diacid-gGlu), des1, 21S, 23Y, 30S, 31G]mimylin (peptide)", "peptide": "{C20 diacid-γGlu}-ASELSTAALGRLSAELHELSTYPRTETGSGSP-NH2", "SMILES": "CC(C)C[C@H](NC(=O)[C@H](C)NC(=O)[C@H](C)NC(=O)[C@@H](NC(=O)[C@H](CO)NC(=O)[C@H](CC(C)C)NC(=O)[C@H](CCC(=O)O)NC(=O)[C@H](CO)NC(=O)[C@H](C)NC(=O)CC[C@H](NC(=O)CCCCCCCCCCCCCCCCCCC(=O)O)C(=O)O)[C@@H](C)O)C(=O)NCC(=O)N[C@@H](CCCNC(=N)N)C(=O)N[C@@H](CC(C)C)C(=O)N[C@@H](CO)C(=O)N[C@@H](C)C(=O)N[C@@H](CCC(=O)O)C(=O)N[C@@H](CC(C)C)C(=O)N[C@@H](Cc1c[nH]cn1)C(=O)N[C@@H](CCC(=O)O)C(=O)N[C@@H](CC(C)C)C(=O)N[C@@H](CO)C(=O)N[C@H](C(=O)N[C@@H](Cc1ccc(O)cc1)C(=O)N1CCC[C@H]1C(=O)N[C@@H](CCCNC(=N)N)C(=O)N[C@H](C(=O)N[C@@H](CCC(=O)O)C(=O)N[C@H](C(=O)NCC(=O)N[C@@H](CO)C(=O)NCC(=O)N[C@@H](CO)C(=O)N1CCC[C@H]1C(N)=O)[C@@H](C)O)[C@@H](C)O)[C@@H](C)O"}, "B2": {"name": "[N-terminal(C20 diacid-gGlu), -1E, 1A, 23Y, 30S, 31G]mimylin (peptide)", "peptide": "{C20 diacid-γGlu}-EAASELSTAALGRLSAELHELATYPRTETGSGSP-NH2", "SMILES": "CC(C)C[C@H](NC(=O)[C@H](C)NC(=O)[C@H](C)NC(=O)[C@@H](NC(=O)[C@H](CO)NC(=O)[C@H](CC(C)C)NC(=O)[C@H](CCC(=O)O)NC(=O)[C@H](CO)NC(=O)[C@H](C)NC(=O)[C@H](C)NC(=O)[C@H](CCC(=O)O)NC(=O)CC[C@H](NC(=O)CCCCCCCCCCCCCCCCCCC(=O)O)C(=O)O)[C@@H](C)O)C(=O)NCC(=O)N[C@@H](CCCNC(=N)N)C(=O)N[C@@H](CC(C)C)C(=O)N[C@@H](CO)C(=O)N[C@@H](C)C(=O)N[C@@H](CCC(=O)O)C(=O)N[C@@H](CC(C)C)C(=O)N[C@@H](Cc1c[nH]cn1)C(=O)N[C@@H](CCC(=O)O)C(=O)N[C@@H](CC(C)C)C(=O)N[C@@H](C)C(=O)N[C@H](C(=O)N[C@@H](Cc1ccc(O)cc1)C(=O)N1CCC[C@H]1C(=O)N[C@@H](CCCNC(=N)N)C(=O)N[C@H](C(=O)N[C@@H](CCC(=O)O)C(=O)N[C@H](C(=O)NCC(=O)N[C@@H](CO)C(=O)NCC(=O)N[C@@H](CO)C(=O)N1CCC[C@H]1C(N)=O)[C@@H](C)O)[C@@H](C)O)[C@@H](C)O"}, "B3": {"name": "[N-terminal(C20 diacid-gGlu), des1, 23Y, 30S, 31G, 32A]mimylin (peptide)", "peptide": "{C20 diacid-γGlu}-ASELSTAALGRLSAELHELATYPRTETGSGAP-NH2", "SMILES": "CC(C)C[C@H](NC(=O)[C@H](C)NC(=O)[C@H](C)NC(=O)[C@@H](NC(=O)[C@H](CO)NC(=O)[C@H](CC(C)C)NC(=O)[C@H](CCC(=O)O)NC(=O)[C@H](CO)NC(=O)[C@H](C)NC(=O)CC[C@H](NC(=O)CCCCCCCCCCCCCCCCCCC(=O)O)C(=O)O)[C@@H](C)O)C(=O)NCC(=O)N[C@@H](CCCNC(=N)N)C(=O)N[C@@H](CC(C)C)C(=O)N[C@@H](CO)C(=O)N[C@@H](C)C(=O)N[C@@H](CCC(=O)O)C(=O)N[C@@H](CC(C)C)C(=O)N[C@@H](Cc1c[nH]cn1)C(=O)N[C@@H](CCC(=O)O)C(=O)N[C@@H](CC(C)C)C(=O)N[C@@H](C)C(=O)N[C@H](C(=O)N[C@@H](Cc1ccc(O)cc1)C(=O)N1CCC[C@H]1C(=O)N[C@@H](CCCNC(=N)N)C(=O)N[C@H](C(=O)N[C@@H](CCC(=O)O)C(=O)N[C@H](C(=O)NCC(=O)N[C@@H](CO)C(=O)NCC(=O)N[C@@H](C)C(=O)N1CCC[C@H]1C(N)=O)[C@@H](C)O)[C@@H](C)O)[C@@H](C)O"}},
  "key": {"[1]": {"biological_target": "T1, human amylin 3(a) receptor (human calcitonin receptor co-expressed with RAMP-3) (human, UniProt P30988 25-474; O60896 24-148, limits assumed)", "T1 sequence (looked up) 1": "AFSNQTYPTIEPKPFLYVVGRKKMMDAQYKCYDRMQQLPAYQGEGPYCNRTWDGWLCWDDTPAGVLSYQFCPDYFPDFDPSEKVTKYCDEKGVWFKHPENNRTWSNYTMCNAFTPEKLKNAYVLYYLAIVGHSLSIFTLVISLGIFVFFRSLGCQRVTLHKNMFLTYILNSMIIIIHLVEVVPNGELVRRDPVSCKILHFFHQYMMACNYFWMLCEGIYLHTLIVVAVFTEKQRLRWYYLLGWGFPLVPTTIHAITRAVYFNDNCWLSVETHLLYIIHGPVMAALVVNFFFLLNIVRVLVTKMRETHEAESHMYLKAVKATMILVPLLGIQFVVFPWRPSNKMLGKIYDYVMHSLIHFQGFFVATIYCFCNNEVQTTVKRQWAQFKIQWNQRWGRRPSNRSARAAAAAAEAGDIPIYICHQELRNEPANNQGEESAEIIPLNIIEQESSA", "T1 sequence (looked up) 2": "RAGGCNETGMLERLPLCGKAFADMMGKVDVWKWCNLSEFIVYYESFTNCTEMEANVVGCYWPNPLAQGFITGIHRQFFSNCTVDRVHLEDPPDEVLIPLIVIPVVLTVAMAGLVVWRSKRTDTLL", "assay": "cell-based or functional assay"}, "[2]": {"biological_target": "T2, human calcitonin receptor (human, UniProt P30988 25-474)", "T2 sequence (looked up)": "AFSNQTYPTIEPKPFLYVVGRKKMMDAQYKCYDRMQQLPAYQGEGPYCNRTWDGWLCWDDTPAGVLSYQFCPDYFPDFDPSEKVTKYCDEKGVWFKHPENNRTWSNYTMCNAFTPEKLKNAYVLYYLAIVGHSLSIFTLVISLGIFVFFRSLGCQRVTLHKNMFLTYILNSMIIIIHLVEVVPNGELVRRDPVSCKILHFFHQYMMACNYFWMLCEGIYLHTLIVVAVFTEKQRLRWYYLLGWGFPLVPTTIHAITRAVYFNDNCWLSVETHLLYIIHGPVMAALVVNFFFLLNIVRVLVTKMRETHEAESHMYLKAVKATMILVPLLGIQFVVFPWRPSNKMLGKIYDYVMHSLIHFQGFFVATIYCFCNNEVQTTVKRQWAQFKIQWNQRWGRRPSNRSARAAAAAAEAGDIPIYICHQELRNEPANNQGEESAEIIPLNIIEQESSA", "assay": "cell-based or functional assay"}},
  "note": "Numbered stars: 1 amine (or outer) side, 2 acyl side, 3 side chain; on linkers, the order of the positions; unused ones are H or OH. * marks the point of attachment. C20 diacid = O=C(O)CCCCCCCCCCCCCCCCCCC(=O)*; γGlu = O=C(O)[C@H](CCC(=O)[*:2])N[*:1]",
  "data": [
    {"binder": "B1", "values": [
      {"measurement": "hAmylin-R funct. EC50 (pM)", "setting": "[1]", "result": 33, "unit": "pM"},
      {"measurement": "hCTR funct. EC50 (pM)", "setting": "[2]", "result": 27, "unit": "pM"}
    ]},
    {"binder": "B2", "values": [
      {"measurement": "hAmylin-R funct. EC50 (pM)", "setting": "[1]", "result": 17, "unit": "pM"},
      {"measurement": "hCTR funct. EC50 (pM)", "setting": "[2]", "result": 15, "unit": "pM"}
    ]},
    {"binder": "B3", "values": [
      {"measurement": "hAmylin-R funct. EC50 (pM)", "setting": "[1]", "result": 37, "unit": "pM"},
      {"measurement": "hCTR funct. EC50 (pM)", "setting": "[2]", "result": 41, "unit": "pM"}
    ]}
  ]
}
